Series [1] deals with SHELδ26A (SHEL lacking the sequence of exon 26A).
Series [2] concerns serine protease site peptide (SPS-peptide), N-AAKAQLRAAAGLGA-C.
Series [3] concerns SHEL (synthetic human elastin; recombinant human tropoelastin splice form).
Series [4] has as its system GST-SHEL (glutathione S-transferase fusion of SHEL).

human plasma kallikrein (Sigma), sequence (chain, as listed by the source): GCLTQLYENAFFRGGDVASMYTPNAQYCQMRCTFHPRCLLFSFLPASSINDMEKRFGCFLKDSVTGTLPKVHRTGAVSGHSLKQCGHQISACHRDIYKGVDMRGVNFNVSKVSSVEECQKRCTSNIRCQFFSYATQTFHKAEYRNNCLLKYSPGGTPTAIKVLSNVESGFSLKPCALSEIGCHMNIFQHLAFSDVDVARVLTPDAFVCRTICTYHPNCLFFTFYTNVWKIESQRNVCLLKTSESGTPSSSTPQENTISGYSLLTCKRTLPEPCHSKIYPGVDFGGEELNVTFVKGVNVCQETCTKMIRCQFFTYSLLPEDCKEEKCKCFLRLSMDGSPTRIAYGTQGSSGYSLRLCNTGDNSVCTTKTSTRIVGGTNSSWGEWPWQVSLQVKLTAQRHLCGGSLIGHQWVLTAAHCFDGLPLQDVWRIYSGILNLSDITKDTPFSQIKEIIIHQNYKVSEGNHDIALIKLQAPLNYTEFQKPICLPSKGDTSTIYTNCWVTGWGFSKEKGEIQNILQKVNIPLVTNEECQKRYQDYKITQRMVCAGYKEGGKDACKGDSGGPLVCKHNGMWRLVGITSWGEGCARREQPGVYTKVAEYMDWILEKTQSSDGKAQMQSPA
SHELδ26A (SHEL lacking the sequence of exon 26A), sequence (chain, as listed by the source mutant): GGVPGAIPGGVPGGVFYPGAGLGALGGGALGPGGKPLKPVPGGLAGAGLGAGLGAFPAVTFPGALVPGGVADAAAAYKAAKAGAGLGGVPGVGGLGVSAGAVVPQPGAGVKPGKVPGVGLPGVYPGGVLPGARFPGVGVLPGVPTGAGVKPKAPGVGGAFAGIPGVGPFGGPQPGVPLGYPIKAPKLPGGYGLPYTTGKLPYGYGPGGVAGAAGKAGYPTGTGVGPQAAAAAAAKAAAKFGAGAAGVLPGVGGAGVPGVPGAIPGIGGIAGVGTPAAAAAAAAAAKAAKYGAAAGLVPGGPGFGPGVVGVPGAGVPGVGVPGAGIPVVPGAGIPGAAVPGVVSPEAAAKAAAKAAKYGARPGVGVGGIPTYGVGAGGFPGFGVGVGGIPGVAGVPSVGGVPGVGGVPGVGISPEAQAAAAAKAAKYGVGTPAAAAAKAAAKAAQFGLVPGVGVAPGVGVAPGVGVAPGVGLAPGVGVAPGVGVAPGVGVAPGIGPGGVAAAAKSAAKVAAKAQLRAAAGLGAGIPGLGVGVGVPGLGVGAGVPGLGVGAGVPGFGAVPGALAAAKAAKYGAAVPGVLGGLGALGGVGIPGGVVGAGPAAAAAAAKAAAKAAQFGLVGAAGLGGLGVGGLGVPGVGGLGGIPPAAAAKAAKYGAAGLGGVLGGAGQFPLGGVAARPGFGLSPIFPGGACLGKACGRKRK
SHEL (synthetic human elastin; recombinant human tropoelastin splice form), sequence (chain, as listed by the source): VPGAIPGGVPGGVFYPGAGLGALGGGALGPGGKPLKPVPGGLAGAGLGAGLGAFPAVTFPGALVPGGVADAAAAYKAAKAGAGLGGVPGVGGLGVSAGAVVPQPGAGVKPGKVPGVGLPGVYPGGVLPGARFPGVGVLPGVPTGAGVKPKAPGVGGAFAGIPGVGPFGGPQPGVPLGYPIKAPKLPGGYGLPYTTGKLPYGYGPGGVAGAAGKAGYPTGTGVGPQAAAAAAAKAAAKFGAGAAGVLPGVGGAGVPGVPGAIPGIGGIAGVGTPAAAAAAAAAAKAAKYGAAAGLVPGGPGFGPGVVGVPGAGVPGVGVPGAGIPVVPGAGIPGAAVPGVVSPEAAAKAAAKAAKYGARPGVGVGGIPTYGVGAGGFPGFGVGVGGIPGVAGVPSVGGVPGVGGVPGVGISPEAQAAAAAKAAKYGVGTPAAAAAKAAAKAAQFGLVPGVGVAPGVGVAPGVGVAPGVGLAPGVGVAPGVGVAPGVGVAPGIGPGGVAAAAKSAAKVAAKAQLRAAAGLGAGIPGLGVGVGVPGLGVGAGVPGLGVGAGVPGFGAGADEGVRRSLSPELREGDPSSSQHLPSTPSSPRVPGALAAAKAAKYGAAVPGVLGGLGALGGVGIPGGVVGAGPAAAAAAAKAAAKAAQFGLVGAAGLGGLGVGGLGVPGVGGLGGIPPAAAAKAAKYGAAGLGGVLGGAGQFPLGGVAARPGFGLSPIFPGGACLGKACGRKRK
GST-SHEL (glutathione S-transferase fusion of SHEL), sequence (chain, as listed by the source): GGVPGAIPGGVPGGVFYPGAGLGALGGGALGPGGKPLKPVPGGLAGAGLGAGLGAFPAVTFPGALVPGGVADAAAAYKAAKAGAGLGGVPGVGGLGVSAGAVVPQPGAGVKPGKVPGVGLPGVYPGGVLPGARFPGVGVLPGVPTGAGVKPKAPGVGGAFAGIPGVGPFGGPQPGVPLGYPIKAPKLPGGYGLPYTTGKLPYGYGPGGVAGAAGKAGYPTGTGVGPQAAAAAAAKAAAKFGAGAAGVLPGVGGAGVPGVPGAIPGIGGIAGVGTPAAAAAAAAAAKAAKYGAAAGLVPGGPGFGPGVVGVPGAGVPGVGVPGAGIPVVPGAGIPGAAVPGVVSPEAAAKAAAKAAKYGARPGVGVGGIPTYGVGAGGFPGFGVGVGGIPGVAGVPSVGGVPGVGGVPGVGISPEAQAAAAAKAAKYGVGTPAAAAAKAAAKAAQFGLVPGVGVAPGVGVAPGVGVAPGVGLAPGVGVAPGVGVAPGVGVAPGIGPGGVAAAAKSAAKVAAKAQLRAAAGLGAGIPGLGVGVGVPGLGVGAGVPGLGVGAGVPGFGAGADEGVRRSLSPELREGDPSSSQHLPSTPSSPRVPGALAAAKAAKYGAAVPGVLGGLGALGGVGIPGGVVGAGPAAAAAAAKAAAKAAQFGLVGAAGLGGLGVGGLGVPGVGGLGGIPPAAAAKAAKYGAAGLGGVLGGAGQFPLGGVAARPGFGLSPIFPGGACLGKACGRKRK

Turning to human plasma kallikrein (Sigma), the “degradation of SHELδ26A by human plasma kallikrein, SDS-PAGE” value in series [1] was “The pattern of degradation of SHELδ26A was somewhat different, with the 22 and 18 kDa fragments missing and replaced by a 15 kDa fragment”. Also, the “amount of full-length SHEL after kallikrein digestion with a 100:1 molar excess of SPS-peptide, SDS-PAGE and densitometry (also seen with SHELδ26A, not shown)” value in series [2] is “more full-length SHEL was evident compared with controls using trypsin, plasmin, kallikrein and serum”. Also, the “degradation of SHEL by human plasma kallikrein, SDS-PAGE” value in series [3] was “Three major fragments were identified by SDS-PAGE (FIG. 8) estimated to be 45, 22 and 18 kDa”.
As for human thrombin (Sigma), the “degradation of SHELδ26A by thrombin, SDS-PAGE” value in series [1] is “The patterns of degradation seen with SHELδ26A was slightly different with the 22 kDa fragment reduced in size to about 15 kDa”. The “amount of full-length SHEL after thrombin digestion with SPS-peptide, SDS-PAGE and densitometry” value in series [2] was “SPS-peptide also resulted in more full-length SHEL using thrombin and HLE but to a lesser extent”. In addition, the “cleavage of GST-SHEL by thrombin, SDS-PAGE” value in series [4] is “Thrombin is able to cleave GST-SHEL extensively and in a reproducible manner”. Further, in series [3], the “degradation of SHEL by thrombin, SDS-PAGE” value is “four major fragments were identified by SDS-PAGE estimated at 45, 34, 22 and 13 kDa”.

(Values after patent US7229788.)
